Laboratory results from US20220249679A1 (Mitsubishi Tanabe Pharma Corporation, priority 2018, published 2022).
Changes are numbered by the printed parent chain.

B1: 13P30A7 hIgG1: chimeric antibody: murine variable regions of F13P30A7 (SEQ ID NO:83, 35), constant regions of human IgG1, kappa (antibody, listed as Mus musculus, V domains shown)
VH: EVQLVESGGGLVQPKGSLKLSCAASGFTFNTYAMNWVRQAPGKGLEWIARIRSKSNNYATYYADSVKDRFTISRDDSQSLLYLQMNNLKTEDTAIFYCVTDYGYVYFDAWGAGTTVTVSS
VL: NIIMTQSPKSMAMSVGERVTLSCKASENVGNYVSWYQQKPEQSPKLLIYGASYRYTGVPDRFTGSGSGTDFTLTISSVQAEDLADYHCGQSSRYPLTFGAGTKLELKR
modifications: human IgG1 and kappa constant regions
B2: F11AP11E5: murine anti-CD138 hybridoma antibody; VH SEQ ID NO:87, VL SEQ ID NO:39 (antibody, listed as Mus musculus, V domains shown)
VH: QVQLQQSGAELVKPGASVKLSCKASGYTFTNYYMYWVKQRPGQGLEWIGEINPGNGGTNFNEKFKNKATLTVDKSSSTAYMQLSSLTSEDSAVYYCTTRFAYWGQGTLVIVSA
VL: DVVMTQTPLSLSVTIGQPASISCKSGQSLLYSNGKTYLTWLQQRPGQAPKLLMYQVSKLDPGIPDRFSGSGSETDFTLKISRVEAEDLGVYYCLQNTYYPHTFGAGTKLELKR
B3: F13P30A7: murine anti-CD138 hybridoma antibody; VH SEQ ID NO:83, VL SEQ ID NO:35 (antibody, listed as Mus musculus, V domains shown)
VH: B1 VH
VL: B1 VL
B4: F13P18D8: murine anti-CD138 hybridoma antibody; VH SEQ ID NO:84, VL SEQ ID NO:36 (antibody, listed as Mus musculus, V domains shown)
VH: B1 VH with V5L, K15E, T28A, I48L, S79G, L80M, I95M, F96Y, G103Y, A109V
VL: B1 VL with I3V, A12S, N31T, P40S, E41D, Y53N, G68A, S76T, A80S

Tests used:
[1] = target: T1, human CD138 (Homo sapiens, UniProt P18827); experiment: FACS binding to Expi293 cells transfected with human CD138; settings: 3-fold dilutions from 33.3 μg/mL
T1 sequence (P18827 23-310): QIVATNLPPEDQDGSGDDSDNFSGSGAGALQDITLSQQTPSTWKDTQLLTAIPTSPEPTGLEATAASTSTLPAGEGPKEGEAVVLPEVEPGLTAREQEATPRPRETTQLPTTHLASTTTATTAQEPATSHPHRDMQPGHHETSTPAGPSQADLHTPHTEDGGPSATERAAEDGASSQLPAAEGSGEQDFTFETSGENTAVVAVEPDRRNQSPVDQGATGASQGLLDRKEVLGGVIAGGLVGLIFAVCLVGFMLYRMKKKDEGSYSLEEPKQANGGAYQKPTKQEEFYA
Method: (§1) 12P16F6 hIgG1 or 13P30A7 hIgG1 were tested for cross-reactivity to cynomolgus monkey CD138. Antibodies that cross-react with CD138 from cynomolgus monkey (cyno) have an advantage that they can be tested for toxicity in this strain of non-human primate prior to conducting efficacy trials. Briefly, a vector directing the cell-surface expression of human CD138 or cyno CD138 was transfected in Expi293 cells. Binding of 12P16F6 hIgG1 and 13P30A7 hIgG1 to transfected Expi293 cells was tested at 3-fold dilutions starting at 33.3 μg/mL.

[2] = system: cyno CD138; experiment: FACS binding to Expi293 cells transfected with cyno CD138; parameters: species or system cynomolgus monkey; settings: 3-fold dilutions from 33.3 μg/mL
Chain of cyno CD138 (as listed by the source): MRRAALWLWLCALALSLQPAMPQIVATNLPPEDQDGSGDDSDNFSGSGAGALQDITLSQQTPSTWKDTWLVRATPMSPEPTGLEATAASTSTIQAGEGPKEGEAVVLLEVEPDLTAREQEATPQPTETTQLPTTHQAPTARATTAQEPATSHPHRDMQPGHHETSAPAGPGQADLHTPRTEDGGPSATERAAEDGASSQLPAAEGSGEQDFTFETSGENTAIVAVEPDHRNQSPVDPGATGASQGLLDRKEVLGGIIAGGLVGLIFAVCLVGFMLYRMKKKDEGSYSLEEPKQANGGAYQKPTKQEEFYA
Method: as §1

[3] = target: T2, Human CD138 His (Homo sapiens, UniProt P18827); experiment: SPR kinetic binding, human CD138; settings: bivalent analyte fit
T2 construct: His
T2 sequence (P18827 23-310): T1 sequence (P18827 23-310)
Method: Murine IgGs were purified from the hybridoma supernatants and the IgGs were subject to SPR (surface plasmon resonance) for kinetic binding measurements. Human or mouse CD138 His was immobilized on a GLM chip at […] on a BioRad Proteon. […] KDs were measured using bivalent analyte fit.

Molecule	binding to human CD138 expressing cells [1]	binding to cynomolgus CD138 expressing cells [2]	hCD138 ka [3] [M⁻¹ s⁻¹]	hCD138 kd [3] [s⁻¹]
B1	specific binding	specific binding	–	–
B2	–	–	128000	0.0117
B3	–	–	238000	0.00127
B4	–	–	278000	0.000523
